Data set [1] concerns the target human NEP (Homo sapiens, UniProt P08473). The following applies: literature statement; ref Betts et al, [2008]; cited from earlier work.
Data set [2] deals with ADAM10. The experiment in a line: 0.4 µg. The following applies: human, 37°C, up to 24 h.

human NEP, sequence (P08473 whole entry): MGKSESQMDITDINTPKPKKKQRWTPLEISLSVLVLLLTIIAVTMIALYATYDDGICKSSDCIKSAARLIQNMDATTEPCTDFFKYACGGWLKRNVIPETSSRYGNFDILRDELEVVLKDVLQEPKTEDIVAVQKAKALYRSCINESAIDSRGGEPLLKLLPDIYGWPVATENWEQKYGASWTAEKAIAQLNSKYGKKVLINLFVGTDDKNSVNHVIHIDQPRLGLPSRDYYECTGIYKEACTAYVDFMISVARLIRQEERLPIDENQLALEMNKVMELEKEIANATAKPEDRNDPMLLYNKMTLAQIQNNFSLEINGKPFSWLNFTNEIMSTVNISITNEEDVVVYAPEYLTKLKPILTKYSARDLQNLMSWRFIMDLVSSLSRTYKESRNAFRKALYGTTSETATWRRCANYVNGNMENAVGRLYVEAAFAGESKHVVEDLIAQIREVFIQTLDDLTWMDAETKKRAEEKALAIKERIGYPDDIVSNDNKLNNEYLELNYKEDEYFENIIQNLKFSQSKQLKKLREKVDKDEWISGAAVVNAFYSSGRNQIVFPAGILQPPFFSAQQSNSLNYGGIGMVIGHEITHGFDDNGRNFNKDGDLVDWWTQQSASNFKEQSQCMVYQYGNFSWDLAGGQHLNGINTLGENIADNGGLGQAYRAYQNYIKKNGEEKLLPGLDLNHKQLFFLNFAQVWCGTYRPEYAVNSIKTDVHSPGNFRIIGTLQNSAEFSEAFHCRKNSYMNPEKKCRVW

On to “Aβ40 A21G: Aβ40 peptide with the Flemish mutation A21G (literature)”, for which the NEP-mediated degradation entry in data set [1] is “attenuated”.

On to EVHHQNLVFFAEDVGSNK, for which, in data set [2], the fragment found result is given as “Aβ11–16 K16N, minor, 5 h”.

Source of the values: article PMC3407951 (EMBO Molecular Medicine, 2012).
